Measurements from PMC8421143 (Nucleic Acids Research, 2021).

Biological target: recombinant full-length human BLM with a C-terminal His6-tag (human, UniProt P54132 1-1417)
Assay: co-IP

recombinant full-length human BLM with a C-terminal His6-tag, sequence (P54132 whole entry): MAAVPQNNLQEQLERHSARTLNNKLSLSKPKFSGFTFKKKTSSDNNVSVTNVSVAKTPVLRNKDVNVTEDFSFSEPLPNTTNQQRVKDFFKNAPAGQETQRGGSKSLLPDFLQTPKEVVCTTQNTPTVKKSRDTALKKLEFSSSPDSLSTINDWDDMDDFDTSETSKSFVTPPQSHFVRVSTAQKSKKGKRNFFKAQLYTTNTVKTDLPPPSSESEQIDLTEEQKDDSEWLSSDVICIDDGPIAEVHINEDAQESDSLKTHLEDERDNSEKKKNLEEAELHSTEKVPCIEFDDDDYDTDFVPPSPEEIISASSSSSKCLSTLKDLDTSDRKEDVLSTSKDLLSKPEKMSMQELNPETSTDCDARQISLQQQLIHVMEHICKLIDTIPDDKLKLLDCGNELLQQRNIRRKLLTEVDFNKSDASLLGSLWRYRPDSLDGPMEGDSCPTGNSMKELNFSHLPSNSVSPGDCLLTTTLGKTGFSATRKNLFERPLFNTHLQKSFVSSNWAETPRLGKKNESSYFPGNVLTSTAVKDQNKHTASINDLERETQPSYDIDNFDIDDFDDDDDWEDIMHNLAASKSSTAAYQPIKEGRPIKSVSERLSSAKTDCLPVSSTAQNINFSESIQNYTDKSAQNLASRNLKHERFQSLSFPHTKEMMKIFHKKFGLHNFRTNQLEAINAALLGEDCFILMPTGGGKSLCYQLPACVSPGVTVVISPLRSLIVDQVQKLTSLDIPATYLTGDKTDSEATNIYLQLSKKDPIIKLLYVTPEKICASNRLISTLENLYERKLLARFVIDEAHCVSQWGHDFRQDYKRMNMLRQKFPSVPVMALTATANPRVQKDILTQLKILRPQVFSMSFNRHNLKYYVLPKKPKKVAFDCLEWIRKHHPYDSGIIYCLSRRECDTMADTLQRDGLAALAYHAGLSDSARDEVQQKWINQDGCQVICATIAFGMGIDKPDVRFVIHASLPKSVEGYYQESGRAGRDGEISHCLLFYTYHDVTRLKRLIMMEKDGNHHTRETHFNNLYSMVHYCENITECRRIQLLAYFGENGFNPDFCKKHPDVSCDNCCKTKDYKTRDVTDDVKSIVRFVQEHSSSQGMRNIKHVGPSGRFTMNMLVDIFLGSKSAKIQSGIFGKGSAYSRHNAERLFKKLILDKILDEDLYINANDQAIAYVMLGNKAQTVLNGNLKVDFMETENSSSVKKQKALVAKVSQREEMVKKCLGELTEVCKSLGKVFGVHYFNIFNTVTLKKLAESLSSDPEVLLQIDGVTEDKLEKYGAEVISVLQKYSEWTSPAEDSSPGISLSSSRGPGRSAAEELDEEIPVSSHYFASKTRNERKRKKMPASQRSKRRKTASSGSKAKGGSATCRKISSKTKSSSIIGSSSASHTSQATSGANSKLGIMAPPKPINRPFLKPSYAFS

B1: recombinant full length human Mcm6 from wheat germ (natural protein)
chain: MDLAAAAEPGAGSQHLEVRDEVAEKCQKLFLDFLEEFQSSDGEIKYLQLAEELIRPERNTLVVSFVDLEQFNQQLSTTIQEEFYRVYPYLCRALKTFVKDRKEIPLAKDFYVAFQDLPTRHKIRELTSSRIGLLTRISGQVVRTHPVHPELVSGTFLCLDCQTVIRDVEQQFKYTQPNICRNPVCANRRRFLLDTNKSRFVDFQKVRIQETQAELPRGSIPRSLEVILRAEAVESAQAGDKCDFTGTLIVVPDVSKLSTPGARAETNSRVSGVDGYETEGIRGLRALGVRDLSYRLVFLACCVAPTNPRFGGKELRDEEQTAESIKNQMTVKEWEKVFEMSQDKNLYHNLCTSLFPTIHGNDEVKRGVLLMLFGGVPKTTGEGTSLRGDINVCIVGDPSTAKSQFLKHVEEFSPRAVYTSGKASSAAGLTAAVVRDEESHEFVIEAGALMLADNGVCCIDEFDKMDVRDQVAIHEAMEQQTISITKAGVKATLNARTSILAAANPISGHYDRSKSLKQNINLSAPIMSRFDLFFILVDECNEVTDYAIARRIVDLHSRIEESIDRVYSLDDIRRYLLFARQFKPKISKESEDFIVEQYKHLRQRDGSGVTKSSWRITVRQLESMIRLSEAMARMHCCDEVQPKHVKEAFRLLNKSIIRVETPDVNLDQEEEIQMEVDEGAGGINGHADSPAPVNGINGYNEDINQESAPKASLRLGFSEYCRISNLIVLHLRKVEEEEDESALKRSELVNWYLKEIESEIDSEEELINKKRIIEKVIHRLTHYDHVLIELTQAGLKGSTEGSESYEEDPYLVVNPNYLLED
binding result: binds
